What all share (assay): co-IP with anti-FLAG, C-FLAG B3GNT2, mass spectrometry
One test addresses T1, HNRNPM (human, UniProt P52272 2-730).
T1 construct: also called NP_005959.2 (+1)
T1 sequence (looked up): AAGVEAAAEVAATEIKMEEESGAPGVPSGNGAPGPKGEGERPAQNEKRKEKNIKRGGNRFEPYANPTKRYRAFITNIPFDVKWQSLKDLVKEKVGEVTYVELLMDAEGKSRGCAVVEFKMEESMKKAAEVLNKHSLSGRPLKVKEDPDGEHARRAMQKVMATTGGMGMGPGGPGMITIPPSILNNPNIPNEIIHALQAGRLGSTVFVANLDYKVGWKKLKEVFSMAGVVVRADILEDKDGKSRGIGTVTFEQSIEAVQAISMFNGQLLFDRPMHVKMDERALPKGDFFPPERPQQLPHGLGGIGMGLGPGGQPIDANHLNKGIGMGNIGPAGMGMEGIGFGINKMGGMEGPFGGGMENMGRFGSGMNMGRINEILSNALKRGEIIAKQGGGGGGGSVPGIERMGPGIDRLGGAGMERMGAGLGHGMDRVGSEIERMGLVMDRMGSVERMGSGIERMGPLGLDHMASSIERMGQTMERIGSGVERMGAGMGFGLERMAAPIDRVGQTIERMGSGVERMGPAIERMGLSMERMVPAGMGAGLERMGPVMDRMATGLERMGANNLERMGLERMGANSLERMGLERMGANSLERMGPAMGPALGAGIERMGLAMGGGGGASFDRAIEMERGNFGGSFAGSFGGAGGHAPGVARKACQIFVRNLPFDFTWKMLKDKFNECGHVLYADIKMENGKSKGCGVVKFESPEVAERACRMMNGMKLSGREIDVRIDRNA
As for the experimental part: (§1) Cells were plated in 10-cm cell culture dishes and grown to 60-80% confluency. For each condition, two biological replicates were harvested for co-IP. Cells were washed with PBS and 4 mL of lysis buffer (20 mM HEPES, 1% Triton X-100, 150 mM NaCl, 1 mM EDTA, and 10% glycerol) containing protease inhibitor cocktail was added. Cells were scraped and lysate was incubated at 4° C. under rotary agitation for 1 h. Lysate was centrifuged at 14,000×g for 10 min at 4° C. Supernatant was transferred to a new tube and an aliquot was taken as the input. […] For Western blots, 10 μg/mL Chicken Anti-FLAG (Aves labs ET-DY100) and IgY control (R&D Systems AB-101-C) antibodies were biotinylated (Thermo Fisher Scientific 90407) and added to the respective conditions. Lysates with antibodies were incubated at 4° C. under rotary agitation overnight. For each mL of lysate, 50 μL of Pierce Protein A/G Magnetic Beads (Mass spectrometry; Thermo Fisher Scientific 88803) or Pierce Streptavidin Magnetic Beads (Western blot; Thermo Fisher Scientific 88817) was washed twice with lysis buffer. Lysates with antibodies were added to the beads and incubated at 4° C. under rotary agitation for 4 h. Beads were washed with lysis buffer 3 times and resuspended in lysis buffer for storage.
(§2) Magnetic beads were resuspended in 100 mM Tris pH 7.8, reduced, alkylated and digested with trypsin at 37° ° C. overnight. This solution was subjected to solid phase extraction to concentrate the peptides and remove unwanted reagents followed by injection onto a Shimadzu HPLC with fraction collector. Eight fractions were collected and after concentration were injected on a Waters NanoAcquity HPLC equipped with a self-packed Aeris 3 μm C18 analytical column 0.075 mm by 20 cm, (Phenomenex). Peptides were eluted using standard reverse-phase gradients. The effluent from the column was analyzed using a Thermo Orbitrap Elite mass spectrometer (nanospray configuration) operated in a data dependent manner for 54 minutes. The resulting fragmentation spectra were correlated against the known database using Proteome Discover 1.4 (Thermo Fisher Scientific).

Another test concerns the target RPS14 (human, UniProt P62263 2-151). Here is the method:
as §1, §2

The target of the next test is T2, IMMT (human, UniProt Q16891-4 34-757, limits assumed).
T2 construct: also called NP_001093639.1 (+3)
T2 sequence (looked up): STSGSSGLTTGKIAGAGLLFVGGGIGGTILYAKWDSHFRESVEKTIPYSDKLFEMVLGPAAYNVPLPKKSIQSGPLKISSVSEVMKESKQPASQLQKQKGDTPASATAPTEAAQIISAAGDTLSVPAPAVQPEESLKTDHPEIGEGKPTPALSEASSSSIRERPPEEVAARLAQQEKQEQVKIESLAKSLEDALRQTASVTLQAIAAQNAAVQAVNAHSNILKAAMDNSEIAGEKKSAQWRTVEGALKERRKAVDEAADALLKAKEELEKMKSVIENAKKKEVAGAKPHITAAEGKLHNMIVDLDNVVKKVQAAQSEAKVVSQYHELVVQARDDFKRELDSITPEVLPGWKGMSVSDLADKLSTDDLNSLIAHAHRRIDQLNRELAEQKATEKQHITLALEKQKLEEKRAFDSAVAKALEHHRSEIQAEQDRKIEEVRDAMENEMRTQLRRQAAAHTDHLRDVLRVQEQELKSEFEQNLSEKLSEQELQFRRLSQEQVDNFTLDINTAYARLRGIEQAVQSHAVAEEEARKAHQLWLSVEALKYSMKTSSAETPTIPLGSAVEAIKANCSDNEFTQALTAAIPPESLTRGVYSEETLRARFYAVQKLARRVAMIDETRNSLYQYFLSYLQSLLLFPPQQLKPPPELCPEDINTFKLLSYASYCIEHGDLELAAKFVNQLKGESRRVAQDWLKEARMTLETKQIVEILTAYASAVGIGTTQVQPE
As for the experimental part: as §1, §2

For a further test, the target named is T3, PSMB5 (human, UniProt P28074 60-263).
T3 construct: also called NP_002788.1
Here is the method:
as §1, §2

The next test has as its target P0AA25.2 (UniProt P0AA25 2-109 = thioredoxin). As for the experimental part:
as §1, §2

The target of a further test is T4, CLTC (human, UniProt Q00610 2-1675, limits assumed).
T4 construct: also called NP_001275582.1 (+2)
Here is the method: as §1, §2

Here are results for 2 molecules from US20240261333A1 (published 2024).

T3 sequence (P28074 60-263 limits assumed): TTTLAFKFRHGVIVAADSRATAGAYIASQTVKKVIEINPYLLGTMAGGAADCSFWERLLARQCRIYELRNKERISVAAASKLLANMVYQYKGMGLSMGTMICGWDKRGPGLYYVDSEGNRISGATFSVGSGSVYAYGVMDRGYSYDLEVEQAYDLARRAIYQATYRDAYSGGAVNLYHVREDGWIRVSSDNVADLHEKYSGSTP
T4 sequence (Q00610 2-1675 limits assumed): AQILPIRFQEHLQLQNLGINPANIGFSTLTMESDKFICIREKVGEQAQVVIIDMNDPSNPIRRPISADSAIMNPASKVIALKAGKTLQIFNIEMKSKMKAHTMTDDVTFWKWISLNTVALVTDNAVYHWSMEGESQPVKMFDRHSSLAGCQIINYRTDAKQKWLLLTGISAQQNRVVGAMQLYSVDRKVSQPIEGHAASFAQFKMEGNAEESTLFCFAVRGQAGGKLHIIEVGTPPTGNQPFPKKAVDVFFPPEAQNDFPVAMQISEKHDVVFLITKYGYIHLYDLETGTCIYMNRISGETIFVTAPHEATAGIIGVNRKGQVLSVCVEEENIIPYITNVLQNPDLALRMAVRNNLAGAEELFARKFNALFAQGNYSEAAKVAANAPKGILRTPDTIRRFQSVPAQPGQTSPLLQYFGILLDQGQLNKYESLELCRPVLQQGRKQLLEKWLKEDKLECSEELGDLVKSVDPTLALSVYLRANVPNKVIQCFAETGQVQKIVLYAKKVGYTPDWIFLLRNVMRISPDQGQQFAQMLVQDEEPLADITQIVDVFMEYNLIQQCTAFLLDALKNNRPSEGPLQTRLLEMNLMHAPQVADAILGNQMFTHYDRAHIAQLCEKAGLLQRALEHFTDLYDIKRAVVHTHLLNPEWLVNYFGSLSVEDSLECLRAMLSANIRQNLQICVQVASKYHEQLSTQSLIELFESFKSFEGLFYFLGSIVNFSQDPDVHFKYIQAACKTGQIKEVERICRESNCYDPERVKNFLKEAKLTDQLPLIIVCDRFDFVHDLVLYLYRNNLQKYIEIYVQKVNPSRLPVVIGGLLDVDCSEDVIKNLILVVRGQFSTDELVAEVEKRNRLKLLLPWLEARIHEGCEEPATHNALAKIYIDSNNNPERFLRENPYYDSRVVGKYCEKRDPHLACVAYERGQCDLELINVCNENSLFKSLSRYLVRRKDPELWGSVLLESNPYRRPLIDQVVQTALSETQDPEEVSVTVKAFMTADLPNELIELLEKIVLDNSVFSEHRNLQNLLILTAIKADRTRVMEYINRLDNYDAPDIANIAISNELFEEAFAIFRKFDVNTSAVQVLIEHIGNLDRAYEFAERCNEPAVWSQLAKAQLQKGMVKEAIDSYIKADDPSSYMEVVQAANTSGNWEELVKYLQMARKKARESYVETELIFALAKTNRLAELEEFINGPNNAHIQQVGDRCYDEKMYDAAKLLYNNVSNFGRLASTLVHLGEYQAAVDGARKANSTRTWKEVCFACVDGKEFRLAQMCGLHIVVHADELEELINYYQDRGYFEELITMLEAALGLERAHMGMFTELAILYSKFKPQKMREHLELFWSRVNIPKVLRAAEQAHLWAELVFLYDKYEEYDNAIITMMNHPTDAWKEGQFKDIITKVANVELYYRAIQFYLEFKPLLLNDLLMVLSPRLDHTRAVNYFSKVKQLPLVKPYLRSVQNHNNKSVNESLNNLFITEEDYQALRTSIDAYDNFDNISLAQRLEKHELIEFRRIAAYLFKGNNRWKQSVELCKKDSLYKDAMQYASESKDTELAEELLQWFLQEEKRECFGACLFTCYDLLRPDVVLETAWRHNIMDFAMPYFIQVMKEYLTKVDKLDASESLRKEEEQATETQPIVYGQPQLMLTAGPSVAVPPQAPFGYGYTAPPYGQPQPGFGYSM
Chain of P0AA25.2 (P0AA25 2-109, one chain of several): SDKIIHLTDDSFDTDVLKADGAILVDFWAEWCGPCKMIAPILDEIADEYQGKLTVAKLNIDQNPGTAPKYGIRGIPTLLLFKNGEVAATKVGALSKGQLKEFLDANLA

B1: C-terminal FLAG tagged B3GNT2 (enzyme, human, UniProt Q9NY97 1-397, looked up)
chain: MSVGRRRIKLLGILMMANVFIYFIMEVSKSSSQEKNGKGEVIIPKEKFWKISTPPEAYWNREQEKLNRQYNPILSMLTNQTGEAGRLSNISHLNYCEPDLRVTSVVTGFNNLPDRFKDFLLYLRCRNYSLLIDQPDKCAKKPFLLLAIKSLTPHFARRQAIRESWGQESNAGNQTVVRVFLLGQTPPEDNHPDLSDMLKFESEKHQDILMWNYRDTFFNLSLKEVLFLRWVSTSCPDTEFVFKGDDDVFVNTHHILNYLNSLSKTKAKDLFIGDVIHNAGPHRDKKLKYYIPEVVYSGLYPPYAGGGGFLYSGHLALRLYHITDQVHLYPIDDVYTGMCLQKLGLVPEKHKGFRTFDIEEKNKNNICSYVDLMLVHSRKPQEMIDIWSQLQSAHLKC
notes: FLAG-tagged ORF overexpressed in cells; pulled down from lysate with mouse anti-FLAG; also called C-FLAG B3GNT2; C-term flag; not shown: C-terminal FLAG tag
On to B1, for which the “co-IP mass spectrometry count” value with HNRNPM stood at 8; with RPS14, 18; in the test with IMMT, 26.

B2: C-terminal FLAG tagged B3GNT2 (enzyme, human, UniProt Q9NY97 1-397, looked up)
chain: MSVGRRRIKLLGILMMANVFIYFIMEVSKSSSQEKNGKGEVIIPKEKFWKISTPPEAYWNREQEKLNRQYNPILSMLTNQTGEAGRLSNISHLNYCEPDLRVTSVVTGFNNLPDRFKDFLLYLRCRNYSLLIDQPDKCAKKPFLLLAIKSLTPHFARRQAIRESWGQESNAGNQTVVRVFLLGQTPPEDNHPDLSDMLKFESEKHQDILMWNYRDTFFNLSLKEVLFLRWVSTSCPDTEFVFKGDDDVFVNTHHILNYLNSLSKTKAKDLFIGDVIHNAGPHRDKKLKYYIPEVVYSGLYPPYAGGGGFLYSGHLALRLYHITDQVHLYPIDDVYTGMCLQKLGLVPEKHKGFRTFDIEEKNKNNICSYVDLMLVHSRKPQEMIDIWSQLQSAHLKC
notes: FLAG-tagged ORF overexpressed in A375 cells; pulled down from the lysate with mouse anti-FLAG; also called C-FLAG B3GNT2; C-term flag; not shown: C-terminal FLAG tag
As to B2, the “co-IP/MS count, C-term flag” value worked out at 0 in the test with PSMB5, 7 with P0AA25.2 and 7 with CLTC.
